# Experimental data reported in patent US12269859B2, “Synthetic immune receptors and methods of use thereof” (Angeles Therapeutics, Inc., priority 2016, dated 2025).
# B1: 072717-G01 (protein)
# chain: MALPVTALLLPLALLLHAARPLEGKPIPNPLLGLDSTGSGEDLKNVFPPEVAVFEPSKAEIAHTQKATLVCLATGFYPDHVELSWWVNGKEVHSGVCTDPQPLKEQPALNDSRYCLSSRLRVSATFWQNPRNHFRCQVQFYGLSENDEWTQDRAKPVTQIVSAEAWGRADCGITSASYHQGVLSATILYEILLGKATLYAVLVSALVLMAMVKRKDSRGRAKRSGSGATNFSLLKQAGDVEENPGPTSMALPVTALLLPLALLLHAARPEFAVQLVESGGGLVQAGDSLRLTCTASGRAFSTYFMAWFRQAPGKEREFVAGIAWSGGSTAYADSVKGRFTISRDNAKNTVYLQMNSLKSEDTAVYYCASRGIEVEEFGAWGQGTQVTVSSPGGGGSPQVQLVESGGGLVQAGGSLRLSCAASGGTLSKNTVAWFRQAPGKERGFVASITWDGRTTYYADSVKGRFTISRDNAKNTVYLQMNSLKPEDTAVYVCADLGKWPAGPADYWGQGTQVTVSSEVAALEKEVAALEKEVAALEKEVAALEKTREQKLISEEDGSGIQNPDPAVYQLRDSKSSDKSVCLFTDFDSQTNVSQSKDSDVYITDKCVLDMRSMDFKSNSAVAWSNKSDFACANAFNNSIIPEDTFFPSSDVPCDVKLVEKSFETDTNLNFQNLSVIGFRILLLKVAGFNLLMTLRLWSSRAKRSGSGVKQTLNFDLLKLAGDVESNPGPSRGHMTEYKPTVRLATRDDVPRAVRTLAAAFADYPATRHTVDPDRHIERVTELQELFLTRVGLDIGKVWVADDGAAVAVWTTPESVEAGAVFAEIGPRMAELSGSRLAAQQQMEGLLAPHRPKEPAWFLATVGVSPDHQGKGLGSAVVLPGVEAAERAGVPAFLETSAPRNLPFYERLGFTVTADVEVPEGPRTWCMTRKPGA
# B2: 082317-G04 (protein)
# chain: MALPVTALLLPLALLLHAARPLEGKPIPNPLLGLDSTGSGEDLKNVFPPEVAVFEPSKAEIAHTQKATLVCLATGFYPDHVELSWWVNGKEVHSGVCTDPQPLKEQPALNDSRYCLSSRLRVSATFWQNPRNHFRCQVQFYGLSENDEWTQDRAKPVTQIVSAEAWGRADCGITSASYHQGVLSATILYEILLGKATLYAVLVSALVLMAMVKRKDSRGRAKRSGSGATNFSLLKQAGDVEENPGPTSMALPVTALLLPLALLLHAARPQIVLTQSPAIMSASPGEKVTITCSASSSVSYMHWFQQKPGTSPKLWIYSTSNLASGVPARFSGSGSGTSYSLTISRMEAEDAATYYCQQRSSYPPTFGGGTKLEIKGGGGSGGGGSGGGGSQVQLQQSGAELMKPGASVKISCKATGYTFSSYWIEWVKQRPGHGLEWIGEILPGSGSTNYNEKFKGKATFTADTSSNTAYMQLSSLTSEDSAVYYCARYDYPWFAYWGQGTLVTVSATREQKLISEEDGSGIQNPDPAVYQLRDSKSSDKSVCLFTDFDSQTNVSQSKDSDVYITDKCVLDMRSMDFKSNSAVAWSNKSDFACANAFNNSIIPEDTFFPSSDVPCDVKLVEKSFETDTNLNFQNLSVIGFRILLLKVAGFNLLMTLRLWSSRAKRSGSGVKQTLNFDLLKLAGDVESNPGPSRGHMTEYKPTVRLATRDDVPRAVRTLAAAFADYPATRHTVDPDRHIERVTELQELFLTRVGLDIGKVWVADDGAAVAVWTTPESVEAGAVFAEIGPRMAELSGSRLAAQQQMEGLLAPHRPKEPAWFLATVGVSPDHQGKGLGSAVVLPGVEAAERAGVPAFLETSAPRNLPFYERLGFTVTADVEVPEGPRTWCMTRKPGA
# B3: 041816-A03 (protein)
# chain: MALPVTALLLPLALLLHAARPDIQMTQSPSSLSASLGERVSLTCRATQELSGYLSWLQQKPDGTIKRLIYAASTLDSGVPKRFSGNRSGSDYSLTISSLESEDFADYYCLQYAIYPYTFGGGTKLEIKLEDLKNVFPPEVAVFEPSEAEISHTQKATLVCLATGFYPDHVELSWWVNGKEVHSGVSTDPQPLKEQPALNDSRYCLSSRLRVSATFWQNPRNHFRCQVQFYGLSENDEWTQDRAKPVTQIVSAEAWGRADCGFTSESYQQGVLSATILYEILLGKATLYAVLVSALVLMAMVKRKDSRGRAKRSGSGATNFSLLKQAGDVEENPGPTSMDWIWRILFLVGAATGAHSFEEVQLQQSGPELVKPGASVKMSCKASGYTFTSYFIHWVKQKPGQGLEWIGFINPYNDGSKYNEKFKGKATLTSDKSSSTAYMELSSLTSEDSAVYYCTRDDGYYGYAMDYWGQGTSVTVSSTREQKLISEEDGSGTPFPSLAPPIMLLVDGKQQMVVVCLVLDVAPPGLDSPIWFSAGNGSALDAFTYGPSPATDGTWTNLAHLSLPSEELASWEPLVCHTGPGAEGHSRSTQPMHLSGEASTARTCPQEPLRGTPGGALWLGVLRLLLFKLLLFDLLLTCSCLCDPAGPLPSPATTTRLRALGSHRLHPATETGGREATSSPRPQPRDRRWGDTPPGRKPGSPVRAKRSGSGVKQTLNFDLLKLAGDVESNPGPSRGHMTEYKPTVRLATRDDVPRAVRTLAAAFADYPATRHTVDPDRHIERVTELQELFLTRVGLDIGKVWVADDGAAVAVWTTPESVEAGAVFAEIGPRMAELSGSRLAAQQQMEGLLAPHRPKEPAWFLATVGVSPDHQGKGLGSAVVLPGVEAAERAGVPAFLETSAPRNLPFYERLGFTVTADVEVPEGPRTWCMTRKPGA
# modifications: Polynucleotide encoding a Synthetic Immune Receptor (SIR)
# B4: 090116-H02 (protein)
# chain: MALPVTALLLPLALLLHAARPLEGKPIPNPLLGLDSTGSGEDLKNVFPPEVAVFEPSKAEIAHTQKATLVCLATGFYPDHVELSWWVNGKEVHSGVCTDPQPLKEQPALNDSRYCLSSRLRVSATFWQNPRNHFRCQVQFYGLSENDEWTQDRAKPVTQIVSAEAWGRADCGITSASYHQGVLSATILYEILLGKATLYAVLVSALVLMAMVKRKDSRGRAKRSGSGATNFSLLKQAGDVEENPGPTSMALPVTALLLPLALLLHAARPDIQMTQSTSSLSASLGDRVTISCSASQGINNYLNWYQQKPDGTVELLIYYTSTLQSGVPSRFSGSGSGTDYSLTISNLEPEDIGTYYCQQYSKLPRTFGGGTKLEIKGGGGSGGGGSGGGGSQVQLQQSGSELMMPGASVKISCKATGYTFSNYWIEWVKQRPGHGLEWIGEILPGTGRTIYNEKFKGKATFTADISSNTVQMQLSSLTSEDSAVYYCARRDYYGNFYYAMDYWGQGTSVTVSSTREQKLISEEDGSGIQNPDPAVYQLRDSKSSDKSVCLFTDFDSQTNVSQSKDSDVYITDKCVLDMRSMDFKSNSAVAWSNKSDFACANAFNNSIIPEDTFFPSSDVPCDVKLVEKSFETDTNLNFQNLSVIGFRILLLKVAGFNLLMTLRLWSSRAKRSGSGVKQTLNFDLLKLAGDVESNPGPSRGHMTEYKPTVRLATRDDVPRAVRTLAAAFADYPATRHTVDPDRHIERVTELQELFLTRVGLDIGKVWVADDGAAVAVWTTPESVEAGAVFAEIGPRMAELSGSRLAAQQQMEGLLAPHRPKEPAWFLATVGVSPDHQGKGLGSAVVLPGVEAAERAGVPAFLETSAPRNLPFYERLGFTVTADVEVPEGPRTWCMTRKPGA
# modifications: Synthetic Immune Receptor (SIR)
# B5: 110116-H02 (protein)
# chain: MALPVTALLLPLALLLHAARPLEQKLISEEDLGSGDRPDPAVYQLRDSKSSDKSVCLFTDFDSQTNVSQSKDSDVYITDKCVLDMRSMDFKSNSAVAWSNKSDFACANAFNNSIIPEDTFFPSPESSCDVKLVEKSFETDTNLNFQNLSVIGFRILLLKVAGFNLLMTLRLWSSSSRAKRSGSGVKQTLNFDLLKLAGDVESNPGPTSMALPVTALLLPLALLLHAARPDIQMTQSTSSLSASLGDRVTISCSASQGINNYLNWYQQKPDGTVELLIYYTSTLQSGVPSRFSGSGSGTDYSLTISNLEPEDIGTYYCQQYSKLPRTFGGGTKLEIKGGGGSGGGGSGGGGSQVQLQQSGSELMMPGASVKISCKATGYTFSNYWIEWVKQRPGHGLEWIGEILPGTGRTIYNEKFKGKATFTADISSNTVQMQLSSLTSEDSAVYYCARRDYYGNFYYAMDYWGQGTSVTVSSTRGKPIPNPLLGLDSTGSGEDLKNVFPPEVAVFEPSEAEISHTQKATLVCLATGFYPDHVELSWWVNGKEVHSGVCTDPQPLKEQPALNDSRYCLSSRLRVSATFWQNPRNHFRCQVQFYGLSENDEWTQDRAKPVTQIVSAEAWGRADCGFTSESYQQGVLSATILYEILLGKATLYAVLVSALVLMAMVKRKDSRGRAKRSGSGATNFSLLKQAGDVEENPGPSRGHMTEYKPTVRLATRDDVPRAVRTLAAAFADYPATRHTVDPDRHIERVTELQELFLTRVGLDIGKVWVADDGAAVAVWTTPESVEAGAVFAEIGPRMAELSGSRLAAQQQMEGLLAPHRPKEPAWFLATVGVSPDHQGKGLGSAVVLPGVEAAERAGVPAFLETSAPRNLPFYERLGFTVTADVEVPEGPRTWCMTRKPGA
# modifications: Synthetic Immune Receptor (SIR)
# B6: 091616-Z01 (protein)
# chain: MALPVTALLLPLALLLHAARPDIVMTQSPDSLAVSLGERATINCKSSQSILYSSNQKNYLAWYQQKPGQSPKLLIYWASTRESGVPDRFSGSGSGTDFTLTISSLQAEDVAVYYCHQYISSYTFGQGTKLEIKLEEQKLISEEDLGSGEDLKNVFPPEVAVFEPSKAEIAHTQKATLVCLATGFYPDHVELSWWVNGKEVHSGVCTDPQPLKEQPALNDSRYCLSSRLRVSATFWQNPRNHFRCQVQFYGLSENDEWTQDRAKPVTQIVSAEAWGRADCGITSASYHQGVLSATILYEILLGKATLYAVLVSALVLMAMVKRKDSRGRAKRSGSGATNFSLLKQAGDVEENPGPTSMDWIWRILFLVGAATGAHSFEQVQLVQSGAEVKKPGASVKVSCKASGYTFASQWMHWMRQAPGQGLEWIGWINPGNVNTKYNEKFKGRATLTVDTSTNTAYMELSSLRSEDTAVYYCARSTWYRPLDYWGQGTLVTVSSTREQKLISEEDLGSGIQNPDPAVYQLRDSKSSDKSVCLFTDFDSQTNVSQSKDSDVYITDKCVLDMRSMDFKSNSAVAWSNKSDFACANAFNNSIIPEDTFFPSSDVPCDVKLVEKSFETDTNLNFQNLSVIGFRILLLKVAGFNLLMTLRLWSSRAKRSGSGVKQTLNFDLLKLAGDVESNPGPSRGHMTEYKPTVRLATRDDVPRAVRTLAAAFADYPATRHTVDPDRHIERVTELQELFLTRVGLDIGKVWVADDGAAVAVWTTPESVEAGAVFAEIGPRMAELSGSRLAAQQQMEGLLAPHRPKEPAWFLATVGVSPDHQGKGLGSAVVLPGVEAAERAGVPAFLETSAPRNLPFYERLGFTVTADVEVPEGPRTWCMTRKPGA
# modifications: Synthetic Immune Receptor (SIR)
# Test system: target antigen-expressing cell line
# Assay: Jurkat NFAT-GFP assay, coculture with target cell lines expressing the respective target antigen (summary Table 10A)
# Format: cell-based, human
# Parameters: key: The signs +/−, +, 2+ etc. after the name of the cell lines indicate the relative degree of positivity on the Jurkat-NFAT-GFP assay as measured by the % GFP positive cells; +: relative degree of positivity on the Jurkat-NFAT-GFP assay as measured by the % GFP positive cells; 2+: relative degree of positivity on the Jurkat-NFAT-GFP assay as measured by the % GFP positive cells
# In short: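 Stable SIR expression in Jurkat-NFAT-GFP cells by lentiviral transfer and puromycin selection; coculture with target cells (E:T approximately 1:2) for 4 to 18 hours; flow cytometric measurement of NFAT-driven GFP; scoring as positive when % GFP-positive cells exceeds that of parental reporter cells.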
Molecule,NFAT-GFP ASSAY Positive Cell lines (coculture with L363 cells),NFAT-GFP ASSAY Positive Cell lines (coculture with U266 cells),further results
B1,–,–,"NFAT-GFP ASSAY Positive Cell lines: L363 (SIR-expressing Jurkat-NFAT-GFP cells cocultured with L363, relative % GFP positive cells): L363 (+/−), U266; NFAT-GFP ASSAY Positive Cell lines: U266 (SIR-expressing Jurkat-NFAT-GFP cells cocultured with U266, relative % GFP positive cells): (+/−)"
B2,–,–,NFAT-GFP ASSAY Positive Cell lines (coculture with L428 cells): L428 (+/−)
B3,"(+/−), L363 (+/−),","(+/−), L363 (+/−),","NFAT-GFP ASSAY Positive Cell lines (coculture with RAJI cells): RAJI (+/−), U266"
B4,"L363 (+), U266 (+)","L363 (+), U266 (+)",–
B5,"L363 (+/−), U266",(+),–
B6,–,–,"NFAT-GFP ASSAY Positive Cell lines: L428 (SIR-expressing Jurkat-NFAT-GFP cells cocultured with L428, relative % GFP positive cells): L428 (+/−)"
